Data on 3 molecules can be found in US20240075137A1 (COMPUGEN, published 2024).

Assay [1] concerns the target T1, mPVRL2 HIS (mouse, UniProt P32507 32-351, limits assumed).
T1 construct: also called mPVRL2 protein; Soluble PVRL2 HIS protein
T1 sequence (looked up): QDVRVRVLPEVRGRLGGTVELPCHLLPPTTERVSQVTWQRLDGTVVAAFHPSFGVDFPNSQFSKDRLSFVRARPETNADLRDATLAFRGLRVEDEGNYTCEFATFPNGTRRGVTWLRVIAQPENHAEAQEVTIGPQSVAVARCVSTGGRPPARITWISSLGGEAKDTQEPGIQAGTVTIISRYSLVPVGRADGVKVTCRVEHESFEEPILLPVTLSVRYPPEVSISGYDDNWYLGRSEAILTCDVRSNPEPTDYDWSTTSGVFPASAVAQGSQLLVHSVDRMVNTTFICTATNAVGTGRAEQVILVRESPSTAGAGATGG
The assay is described as follows: ELISA: soluble PVRL2 HIS titrated on plates coated with mDNAM1-mFc. On the technique in general: ELISA stands for enzyme-linked immunosorbent assay.

The target in assay [2] is T2, human PVRIG on cells (human, UniProt Q6DKI7 1-326).
T2 construct: whole, on cells; over-expressed on HEK cells or endogenous on Jurkat and CD8 T cells; also called hPVRIG; HEK hPVRIG cells
T2 sequence (looked up): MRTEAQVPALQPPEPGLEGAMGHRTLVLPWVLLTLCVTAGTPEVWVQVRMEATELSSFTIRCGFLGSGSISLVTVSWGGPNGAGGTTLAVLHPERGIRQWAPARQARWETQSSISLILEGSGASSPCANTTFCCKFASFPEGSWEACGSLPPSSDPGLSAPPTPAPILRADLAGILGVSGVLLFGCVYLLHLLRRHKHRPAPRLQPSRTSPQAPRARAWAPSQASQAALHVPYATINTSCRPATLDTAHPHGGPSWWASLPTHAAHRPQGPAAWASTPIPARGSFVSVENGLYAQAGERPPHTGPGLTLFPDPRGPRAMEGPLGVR
The assay is described as follows: FACS KD, cell type 'Jurkat' (table beside the curve, column 'FACS KD (nM)').

For assay [3], the target named is T2, human PVRIG on cells. The assay is described as follows: flow cytometry titration, HEK hPVRIG cells.
Procedure: These cells were cultured in DMEM (Gibco)+10% fetal calf serum (Gibco)+glutamax (Gibco). For the HEK hPVRIG over-expressing cells, 0.5 ug/ml puromycin (Gibco) was also added to the media for positive selection. For FACS analysis, all cell lines were harvested in log phase growth and 50,000-100,000 cells per well were seeded in 96 well plates. […] The titration series was conducted as 3 fold serial dilutions. […] Data was acquired using a FACS Canto II (BD Biosciences), FACS LSR Fortessa X-20 (BD Biosciences), or IntelliCyt (IntelliCyt Corporation) and analyzed using FlowJo (Treestar) and Prism (Graphpad) software.
In assay [4] the target is T3, PVRIG Fc (UniProt Q6DKI7 41-171, limits assumed, biotinylated (Example 5)).
T3 construct: also called biotinylated PVRIG Fc protein; PVRIG-Fc-fusion protein
T3 sequence (looked up): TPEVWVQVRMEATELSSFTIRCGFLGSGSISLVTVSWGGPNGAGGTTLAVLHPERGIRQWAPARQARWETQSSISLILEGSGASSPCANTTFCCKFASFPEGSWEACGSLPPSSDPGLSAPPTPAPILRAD
Nature of the assay: FACS blocking assay: binding of PVRIG Fc to HEK cells that endogenously express PVRL2, with the antibody titrated.
Procedure: (§1) Cells were washed twice in PBS for acquisition using a FACS Canto II. Data was analyzed using FlowJo, Excel (Microsoft), and Prism.

Assay [5] addresses T3, PVRIG Fc. The assay is described as follows: FACS competition: biotinylated PVRIG Fc (33 nM) binding to HEK cells with endogenous PVRL2.
Procedure: as §1
Assay [6] concerns the target T4, cynomolgus PVRIG on cells (cynomolgus, UniProt A0A2K5WVV8 41-322).
T4 construct: whole, on cells; also called cPVRIG; expi cPVRIG cells
T4 sequence: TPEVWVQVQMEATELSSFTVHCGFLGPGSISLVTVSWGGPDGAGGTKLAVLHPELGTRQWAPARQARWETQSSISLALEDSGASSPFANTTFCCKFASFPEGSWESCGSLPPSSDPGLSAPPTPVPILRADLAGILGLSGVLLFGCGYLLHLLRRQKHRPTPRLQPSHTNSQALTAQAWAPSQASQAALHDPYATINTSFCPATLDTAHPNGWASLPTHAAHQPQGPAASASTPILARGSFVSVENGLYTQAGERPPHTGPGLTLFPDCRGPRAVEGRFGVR
The assay is described as follows: FACS KD, cell type 'HEK293 cPVRIG' (table beside the curve, column 'FACS KD (nM)').

Assay [7] concerns the target T2, human PVRIG on cells. Nature of the assay: FACS KD, cell type 'HEK293 hPVRIG' (table beside the curve, column 'FACS KD (nM)').
The target of assay [8] is T2, human PVRIG on cells. The assay is described as follows: FACS on Jurkat cells pre-incubated with CHA.7.518.1 (unconjugated).
Source text: (§2) Data was acquired using a FACS Canto II and analysed using FlowJo, Excel, and Prism.
The target in assay [9] is T2, human PVRIG on cells. Nature of the assay: FACS on Jurkat cells pre-incubated with Isotype (unconjugated).
Source text: as §2
Assay [10] addresses T2, human PVRIG on cells. Nature of the assay: FACS competition: PVRL2 mFc binding to HEK hPVRIG cells.
Procedure: Cells were washed twice in PBS for acquisition using a FACS Canto II. Data was analyzed using FlowJo, Excel and Prism.
Assay [11] addresses T2, human PVRIG on cells. Nature of the assay: FACS on Jurkat cells pre-incubated with CHA.7.538.1.2 (unconjugated).
Source text: as §2
The target in assay [12] is T4, cynomolgus PVRIG on cells. Nature of the assay: flow cytometry titration, expi cPVRIG cells. Background: A flow cytometer gives signals particle by particle.
Procedure: These cells were cultured in DMEM+10% fetal calf serum+glutamax. expi cPVRIG transient over-expressing cells were generated by electroporating cPVRIG DNA into parental expi cells using the Neon transfection system. For FACS analysis, expi cPVRIG cells were used between 1-3 days-post transfection. Parental expi cells were harvested from log growth phase. 50,000-100,000 cells of per well of each type were seeded in 96 well plates. […] The titration series were conducted as a 3-fold dilution series. […] Data was acquired using a FACS Canto II or IntelliCyte and analyzed using FlowJo and Prism software.
Assay [13] addresses T5, cyno TIGIT on cells (cynomolgus macaque).
T5 construct: whole, on cells; also called Expi293 cyno TIGIT over-expressing cells
Nature of the assay: FACS titration on cyno TIGIT OE Expi293 cells, binding site concentration; ± 95% CI; 'Fit: Good'; panel of the lower row.
Procedure: (§3) AF647-labeled goat anti-human F(ab′) (Jackson Immunoresearch) was added to the cells to detect binding of anti-TIGIT antibodies. The gMFI of the anti-TIGIT antibodies bound to the cyno TIGIT over-expressing Expi293 cells (black line), and the parental Expi293 cells (grey line) are shown.

Assay [14] concerns the target T6, Mouse TIGIT-His (mouse, UniProt P86176).
T6 construct: also called mouse TIGIT monomer (prepared in-house)
T6 sequence (soluble monomer with His tag, looked up): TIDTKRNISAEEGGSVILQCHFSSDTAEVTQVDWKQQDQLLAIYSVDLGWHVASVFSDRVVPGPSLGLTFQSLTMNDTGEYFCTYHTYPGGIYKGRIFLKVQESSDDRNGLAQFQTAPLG
The assay is described as follows: SPR (ProteOn), mAb captured, mouse TIGIT monomer injected; BM26 as hIgG4.

For assay [15], the target named is T7, Cyno TIGIT-His.
T7 construct: also called cyno TIGIT monomer (prepared in-house); C-terminal HIS-tagged cyno TIGIT ECD recombinant protein
T7 sequence (ECD with C-terminal His tag, as listed by the source): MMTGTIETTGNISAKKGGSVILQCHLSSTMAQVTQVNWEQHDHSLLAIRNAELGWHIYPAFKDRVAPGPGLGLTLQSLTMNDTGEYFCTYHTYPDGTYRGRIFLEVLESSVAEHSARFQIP
The assay is described as follows: SPR (ProteOn), Cyno TIGIT-His.

Assay [16] has as its target T8, human TIGIT on cells (human, UniProt Q495A1 22-141).
T8 construct: also called Expi293 human TIGIT over-expressing cells
T8 sequence: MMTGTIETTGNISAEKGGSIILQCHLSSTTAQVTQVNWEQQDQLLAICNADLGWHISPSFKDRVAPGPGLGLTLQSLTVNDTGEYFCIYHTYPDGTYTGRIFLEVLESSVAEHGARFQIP
The assay is described as follows: FACS titration of AF647-labelled mAb on human effector memory CD8+ T cells, Donor 322.

The target of assay [17] is T8, human TIGIT on cells. The assay is described as follows: FACS blocking: Expi293 human TIGIT cells pre-incubated with mAb, then human PVR-m2aFc; lower gMFI = more blocking.
The target of assay [18] is T9, human TIGIT ECD with C-terminal polyhistidine tag (human, UniProt Q495A1 22-141).
T9 construct: in-house or Sino Biological; also called hTIGIT-HIS; human TIGIT-HIS
T9 sequence: T8 sequence
Nature of the assay: KinExA equilibrium, His-tagged human TIGIT, n = 2. Background: In KinExA the mixture passes briefly over coated beads that capture the unbound partner.
Procedure: (§4) KinExA equilibrium experiments were performed using a KinExA 3200 instrument (Sapidyne Instruments, Boise, ID, USA) at 22° C. Recombinant His-tagged human TIGIT was obtained from Sino Biologicals (Beijing, China) and reconstituted into 1×PBS. All antigen and antibody samples for KinExA analyses were prepared in degassed PBST buffer (PBS with 0.05% tween 20) with 100 ug/mL filtered BSA and 0.02% sodium azide. […] For each KinExA experiment, ˜20 lag of human TIGIT was diluted into 1 mL of 50 mM sodium carbonate, pH 9.2 which was added directly to 50 mg of azlactone beads (Ultralink Support, Thermo Scientific, Rockford, IL, USA) and rocked overnight at 4° C. After rocking, the beads were rinsed once with 1 M Tris buffer, pH 8.5, containing 10 mg/mL BSA and rocked for one hour at room temperature in the same buffer. Coupled beads were added to the bead reservoir in the KinExA instrument and diluted to ˜30 mL with 1×HBS-N (0.01 M Hepes, 0.15M NaCl, GE Healthcare) containing 0.02% sodium azide which was also the running buffer for the KinExA instrument. All antigen-coupled beads were used immediately after preparation.
(§5) The volume flowed through the bead pack for each equilibrated sample for all experiments ranged from 4 mL to 11 mL at a flow rate of 0.25 mL/min.

The target in assay [19] is T8, human TIGIT on cells. The assay is described as follows: FACS blocking of human PVR-m2aFc binding to human TIGIT OE Expi293 cells; binding site concentration; n=1.
Assay [20] concerns the target T9, human TIGIT ECD with C-terminal …. Nature of the assay: SPR (ProteOn), Human TIGIT-His.
The target of assay [21] is T5, cyno TIGIT on cells. The assay is described as follows: FACS titration on cyno TIGIT OE Expi293 cells, binding site concentration; ± 95% CI; 'Fit: Excellent'; panel of the upper row.
Procedure: as §3
Assay [22] addresses T9, human TIGIT ECD with C-terminal …. Nature of the assay: SPR (ProteOn), mAb captured, human TIGIT injected; BM26 as hIgG4.
Assay [23] deals with T8, human TIGIT on cells. The assay is described as follows: FACS blocking of human PVR-m2aFc binding to human TIGIT OE Expi293 cells; binding site concentration; n=2.
The target of assay [24] is T8, human TIGIT on cells. Nature of the assay: FACS titration of AF647-labelled mAb on human effector memory CD8+ T cells, Donor 321.
Assay [25] deals with T8, human TIGIT on cells. The assay is described as follows: FACS titration on human TIGIT OE Expi293 cells, binding site concentration; ± 95% CI; 'Fit: Good/Excellent'; panel of the lower row.
Procedure: (§6) AF647-labeled goat anti-human F(ab′) (Jackson Immunoresearch) was added to the cells to detect binding of anti-TIGIT antibodies.
Assay [26] has as its target T8, human TIGIT on cells. Nature of the assay: FACS titration on human TIGIT OE Expi293 cells, binding site concentration; ± 95% CI; 'Fit: Good/Excellent'; panel of the upper row.
Procedure: as §6
The target of assay [27] is T9, human TIGIT ECD with C-terminal …. The assay is described as follows: KinExA equilibrium, His-tagged human TIGIT, n = 1.
Procedure: as §4, §5
The target of assay [28] is T8, human TIGIT on cells. The assay is described as follows: FACS titration of AF647-labelled mAb on human effector memory CD8+ T cells, Donor 334.
The target of assay [29] is T5, cyno TIGIT on cells. The assay is described as follows: FACS titration of AF647-labelled mAb on cyno effector memory CD8+ T cells, Cyno Donor 1; isotype gMFI subtracted.
For assay [30], the target named is T7, Cyno TIGIT-His. Nature of the assay: SPR (ProteOn), mAb captured, cyno TIGIT monomer injected; kd of this row held constant; BM26 as hIgG4.
Assay [31] deals with T5, cyno TIGIT on cells. The assay is described as follows: FACS titration of AF647-labelled mAb on cyno effector memory CD8+ T cells, Cyno Donor 3; isotype gMFI subtracted.

B1: DNAM1 Fc (Fc fusion, mouse (prefix m in FIG. 95D), UniProt Q8K4F0 19-254, looked up)
fusion chain: EETLWDTTVRLSETMTLECVYPLTHNLTQVEWTKNTGTKTVSIAVYNPNHNMHIESNYLHRVHFLNSTVGFRNMSLSFYNASEADIGIYSCLFHAFPNGPWEKKIKVVWSDSFEIAAPSDSYLSAEPGQDVTLTCQLPRTWPVQQVIWEKVQPHQVDILASCNLSQETRYTSKYLRQTRSNCSQGSMKSILIIPNAMAADSGLYRCRSEAITGKNKSFVIRLIITDGGTNKHFILP
notes: receptor part of an Fc fusion; also called mDNAM1-mFc
B1: the binding result in [1] is given as “binds”.

B2: CHA.7.518.1.H4(S241P) (antibody, human IgG4 S228P, kappa, V domains shown)
VH: QVQLVQSGAEVKKPGASVKVSCKASGYTFTDYNINWVRQAPGQGLEWMGYIYPYIGGSGYAQKFQGRVTMTRDTSTSTVYMELSSLRSEDTAVYYCAREDKTARNAMDYWGQGTLVTVSS
VL: DIQMTQSPSSLSASVGDRVTITCRVSENIYSNLAWYQQKPGKAPKLLIYEATNLAEGVPSRFSGSGSGTDFTLTISSLQPEDFATYYCQHFWGTPYTFGQGTKLEIKR
notes: humanized, human IgG4 with S241P; also called anti-PVRIG
A word on the Kd: it is the equilibrium constant for the complex coming apart. Broadly, the IC50 is the midpoint of a concentration-inhibition curve. Low values mean greater potency in that assay, high ones weaker potency in that assay. For B2, the Kd in assay [2] came to 0.15 nM; in assay [3], 0.29 nM; in assay [6], 0.248 nM; in assay [7] it was 0.298 nM; in [12] it was 0.24 nM. Also, in assay [4], the “IC50 (read off the curve)” value was around 6 nM. Besides, the 50% inhibitory concentration (IC50) is 15 nM in assay [5] and 1.8 nM in assay [10]. The “% binding relative to maximum signal” value turned out to be 14% in [8], 100% in assay [9] and 7% in [11].

B3: BM26 hIgG4 (antibody, V domains shown)
VH: EVQLQQSGPELVKPGSSVKMSCKASGYTFSSYVMHWVKQKPGQGLEWIGYIDPYNDGAKYNEKFKGKATLTSDKSSSTAYMELSSLTSEDSAVYYCARGGPYGWYFDVWGAGTTVTVSS
VL: DIQMTQSPASLSASVGETVTITCRASEHIYSYLSWYQQKQGKSPQLLVYNAKTLAEGVPSRFSGSGSGTQFSLKINSLQPEDFGTYYCQHHFGSPLTFGAGTTLELKR
notes: benchmark anti-human TIGIT antibody, human IgG4 with S241P; also called BM26-H4; WO2016/028656A1 Clone 3106 as hIgG4
B3: the Kd is 1.12 nM in assay [13]; 3.5 pM in assay [15]; 1.4 nM in assay [16]; 0.0112 nM in [18]; 4 pM in assay [20]; 0.69 nM in assay [21]. The Kd in assay [22] was found to be 0.0241 nM; in [24] it was 0.93 nM; in assay [25], 0.74 nM; in [26] it was 0.44 nM; in assay [27], 8.2 pM; in [28], 0.81 nM. Further, the Kd in assay [29] was determined as 4.6 nM; in [30], 1.25 pM; in [31], 7.5 nM. Further, the binding result in assay [14] is recorded as “no binding (tested: 92.9 nM mouse TIGIT)”. Moreover, in assay [17], the “gMFI of bound PVR-m2aFc at 266 pM mAb” value came out at 719. Besides, the “gMFI of bound PVR-m2aFc at 1.3 nM mAb” value in [17] came out at 401. For the same molecule, the “gMFI of bound PVR-m2aFc at 6.7 nM mAb” value in assay [17] was found to be 234. Also, the IC50 in assay [19] came out at 0.45 nM; in assay [23], 0.26 nM.
